The target of experiment [1] is wild-type human CD9 LEL (human) (UniProt P21926). As to the kind of experiment: yeast display flow cytometry; MEM-61 10 µg/ml + goat anti-mouse (Fab′)2-Alexa Fluor 555; induction at 37 °C; secondary only 4.21. (In general: In flow cytometry, cells or beads pass a laser one at a time.)
The target is the same in experiment [2]. As to the kind of experiment: yeast display flow cytometry; MEM-61 10 µg/ml + goat anti-mouse (Fab′)2-Alexa Fluor 555; induction at 20 °C; secondary only 1.14.
The target of experiment [3] is hCD81 LEL mutant C4C9 (Ala134Cys/Lys144Cys and Val135Cys/Ser168Cys) (human) (UniProt P60033). Briefly: ELISA; M38 coated at 5 µg/mL, CD81 LEL variant at 1.666667 µg/ml, anti-his-HRP. On the technique in general: An ELISA detects its analyte on a solid surface through an enzyme-linked reagent.
The target in experiment [4] is wild-type human CD81 LEL (human) (UniProt P60033). The description is as above.
Experiment [5] has as its target hCD81 LEL mutant C4C9 (Ala134Cys/Lys144Cys and Val135Cys/Ser168Cys) (human) (UniProt P60033). As to the kind of experiment: ELISA; M38 coated at 5 µg/mL, CD81 LEL variant at 0.061728 µg/ml, anti-his-HRP.
Experiment [6] deals with wild-type human CD81 LEL (human) (UniProt P60033). The experiment is described as above.
Experiment [7] has the same target. As to the kind of experiment: HEK293-6E cell display flow cytometry; M38 10 µg/ml + anti-mouse F(ab)2-Alexa Fluor 555; secondary only 8.52.
Experiment [8] has as its target hCD81 LEL mutant C4C9 (Ala134Cys/Lys144Cys and Val135Cys/Ser168Cys) (human) (UniProt P60033). Briefly: ELISA; M38 coated at 5 µg/mL, CD81 LEL variant at 5 µg/ml, anti-his-HRP.
Experiment [9] concerns the target wild-type human CD81 LEL (human) (UniProt P60033). The experiment is described as above.
The target of experiment [10] is hCD81 LEL mutant C4C9 (Ala134Cys/Lys144Cys and Val135Cys/Ser168Cys) (human) (UniProt P60033). Briefly: ELISA; M38 coated at 5 µg/mL, CD81 LEL variant at 0.002286 µg/ml, anti-his-HRP.
In experiment [11] the target is wild-type human CD81 LEL (human) (UniProt P60033). The description is as above.
The target in experiment [12] is hCD81 LEL mutant C4C9 (Ala134Cys/Lys144Cys and Val135Cys/Ser168Cys) (human) (UniProt P60033). Briefly: ELISA; M38 coated at 5 µg/mL, CD81 LEL variant at 0.185185 µg/ml, anti-his-HRP.
For experiment [13], the target named is wild-type human CD81 LEL (human) (UniProt P60033). The experiment is described as above.
The target in experiment [14] is hCD81 LEL mutant C4C9 (Ala134Cys/Lys144Cys and Val135Cys/Ser168Cys) (human) (UniProt P60033). Briefly: ELISA; M38 coated at 5 µg/mL, CD81 LEL variant at 0.006859 µg/ml, anti-his-HRP.
Experiment [15] concerns the target wild-type human CD81 LEL (human) (UniProt P60033). Described as above.
Experiment [16] addresses hCD81 LEL mutant C4C9 (Ala134Cys/Lys144Cys and Val135Cys/Ser168Cys) (human) (UniProt P60033). As to the kind of experiment: ELISA; M38 coated at 5 µg/mL, CD81 LEL variant at 0.555556 µg/ml, anti-his-HRP.
For experiment [17], the target named is wild-type human CD81 LEL (human) (UniProt P60033). The description is as above.
For experiment [18], the target named is hCD81 LEL mutant C4C9 (Ala134Cys/Lys144Cys and Val135Cys/Ser168Cys) (human) (UniProt P60033). Briefly: ELISA; M38 coated at 5 µg/mL, CD81 LEL variant at 0.020576 µg/ml, anti-his-HRP.
The target of experiment [19] is wild-type human CD81 LEL (human) (UniProt P60033). The description is as above.
Experiment [20] deals with streptavidin-Alexafluor 647 (UniProt P22629). As to the kind of experiment: yeast display flow cytometry; secondary reagent only.

The source of these data is US20210395725A1.

wild-type human CD81 LEL (human), sequence (P60033 113-201 limits assumed): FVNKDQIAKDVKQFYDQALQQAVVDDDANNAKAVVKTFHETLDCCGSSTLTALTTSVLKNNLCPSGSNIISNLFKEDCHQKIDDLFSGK
hCD81 LEL mutant C4C9 (Ala134Cys/Lys144Cys and Val135Cys/Ser168Cys) (human), sequence (P60033 114-202 A134C/V135C/K144C/S168C): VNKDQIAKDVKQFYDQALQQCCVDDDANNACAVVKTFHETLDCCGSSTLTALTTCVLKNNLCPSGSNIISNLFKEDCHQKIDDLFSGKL
wild-type human CD9 LEL (human), sequence (P21926 113-192 limits assumed): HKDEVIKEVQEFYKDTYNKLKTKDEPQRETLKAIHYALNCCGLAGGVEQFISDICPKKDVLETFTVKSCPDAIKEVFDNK
streptavidin-Alexafluor 647, sequence (P22629 37-163 limits assumed): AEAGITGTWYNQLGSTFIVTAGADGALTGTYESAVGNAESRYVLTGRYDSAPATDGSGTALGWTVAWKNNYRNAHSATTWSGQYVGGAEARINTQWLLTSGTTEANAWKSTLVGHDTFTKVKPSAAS

As to anti-CD9 specific antibody MEM-61, the percentage of positive yeast cells came to 26.2% in [1] and 46.4% in experiment [2].

For the substance anti-hCD81 M38 antibody, the A 450/620 in experiment [3] stood at 3.82; in experiment [4], 3.69; in experiment [5], 3.46; in experiment [6], 3.53; in experiment [8], 3.83; in experiment [9], 3.97. For the same substance, the A 450/620 in [10] was found to be 0.187; in experiment [11], 0.177; in experiment [12] it was 3.69; in experiment [13], 3.68; in experiment [14] it was 0.75; in experiment [15], 0.616. Moreover, the A 450/620 was 3.73 in [16], 3.63 in [17], 1.98 in [18] and 1.89 in experiment [19]. Besides, the MFI in experiment [7] worked out at 83.8.

In experiment [20], “wild-type human CD81 LEL (from UniProt P60033 113-201)” displayed a median fluorescence of 28.3.
